Measurements published in paper PMC10786891, “Massively parallel profiling of RNA-targeting CRISPR-Cas13d”.
Numbering of substitutions follows the chain as printed. Numbers in names are those of the source.

T1: EsCas13d, nuclease-dead (Eubacterium siraeum, UniProt B0MS50, R295A;H300A;R849A;H854A)
T1 sequence: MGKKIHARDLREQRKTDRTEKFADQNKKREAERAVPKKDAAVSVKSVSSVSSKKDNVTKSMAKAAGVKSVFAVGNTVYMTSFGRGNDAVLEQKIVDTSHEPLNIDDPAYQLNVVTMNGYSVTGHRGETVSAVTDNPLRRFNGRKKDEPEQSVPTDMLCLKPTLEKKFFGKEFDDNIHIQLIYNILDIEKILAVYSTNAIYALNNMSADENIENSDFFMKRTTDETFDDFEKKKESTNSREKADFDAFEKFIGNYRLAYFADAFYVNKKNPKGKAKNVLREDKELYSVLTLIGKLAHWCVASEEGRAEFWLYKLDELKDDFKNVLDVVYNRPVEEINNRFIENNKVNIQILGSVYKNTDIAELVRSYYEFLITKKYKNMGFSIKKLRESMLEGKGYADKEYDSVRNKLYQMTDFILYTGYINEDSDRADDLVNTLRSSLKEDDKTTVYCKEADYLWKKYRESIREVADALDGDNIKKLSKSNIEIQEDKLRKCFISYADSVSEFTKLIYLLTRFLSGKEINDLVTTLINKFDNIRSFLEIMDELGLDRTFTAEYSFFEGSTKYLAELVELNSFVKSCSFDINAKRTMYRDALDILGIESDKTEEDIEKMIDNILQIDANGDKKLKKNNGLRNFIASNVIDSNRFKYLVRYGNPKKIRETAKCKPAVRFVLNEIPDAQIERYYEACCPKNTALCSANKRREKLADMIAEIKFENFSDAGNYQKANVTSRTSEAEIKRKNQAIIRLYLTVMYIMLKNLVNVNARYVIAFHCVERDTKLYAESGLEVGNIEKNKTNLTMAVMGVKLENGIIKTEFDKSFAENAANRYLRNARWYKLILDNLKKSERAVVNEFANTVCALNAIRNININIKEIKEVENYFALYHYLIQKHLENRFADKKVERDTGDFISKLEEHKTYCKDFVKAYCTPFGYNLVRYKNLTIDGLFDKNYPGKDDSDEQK

B1: target 2 MT 5'PFS UCU 3'PFS AAU (mixed)
RNA 1: CACCCGUGCAAAAUUGCAGGGGUCUAAAACCUUCUCCAAAUUGUUUCAUCCU
RNA 2: GGGAAUGGAUCCACAUCUACGAAUUCUCUAGGAUGAAACAAUUUGGAGAAGAAUAGAUCGGAAGAGCACACGU
B2: target 2 MT 5'PFS UAG 3'PFS ACU (mixed)
RNA 1: B1 RNA 1
RNA 2: B1 RNA 2 with C28A, U29G, A53C
B3: target 2 MT 5'PFS UCU 3'PFS AAG (mixed)
RNA 1: B1 RNA 1
RNA 2: B1 RNA 2 with U54G
B4: target 2 MT 5'PFS GGU 3'PFS UAC (mixed)
RNA 1: B1 RNA 1
RNA 2: B1 RNA 2 with U27G, C28G, A52U, U54C
B5: target 2 MT 5'PFS GGC 3'PFS UCU (mixed)
RNA 1: B1 RNA 1
RNA 2: B1 RNA 2 with U27G, C28G, U29C, A52U, A53C
B6: target 2 MT 5'PFS CUU 3'PFS CUA (mixed)
RNA 1: B1 RNA 1
RNA 2: B1 RNA 2 with U27C, C28U, A52C, A53U, U54A
B7: target 2 MT 5'PFS CAU 3'PFS CGG (mixed)
RNA 1: B1 RNA 1
RNA 2: B1 RNA 2 with U27C, C28A, A52C, A53G, U54G
B8: target 2 MT 5'PFS GGC 3'PFS UCG (mixed)
RNA 1: B1 RNA 1
RNA 2: B1 RNA 2 with U27G, C28G, U29C, A52U, A53C, U54G
B9: target 2 MT 5'PFS CUU 3'PFS CUU (mixed)
RNA 1: B1 RNA 1
RNA 2: B1 RNA 2 with U27C, C28U, A52C, A53U
B10: target 2 MT 5'PFS CUU 3'PFS CUC (mixed)
RNA 1: B1 RNA 1
RNA 2: B1 RNA 2 with U27C, C28U, A52C, A53U, U54C
B11: target 2 MT 5'PFS UCA 3'PFS UUA (mixed)
RNA 1: B1 RNA 1
RNA 2: B1 RNA 2 with U29A, A52U, A53U, U54A
B12: target 2 MT 5'PFS CAU 3'PFS CGA (mixed)
RNA 1: B1 RNA 1
RNA 2: B1 RNA 2 with U27C, C28A, A52C, A53G, U54A
B13: target 2 MT 5'PFS GCG 3'PFS CGG (mixed)
RNA 1: B1 RNA 1
RNA 2: B1 RNA 2 with U27G, U29G, A52C, A53G, U54G
B14: target 2 MT 5'PFS UCA 3'PFS UUC (mixed)
RNA 1: B1 RNA 1
RNA 2: B1 RNA 2 with U29A, A52U, A53U, U54C
B15: target 2 MT 5'PFS CGG 3'PFS CGA (mixed)
RNA 1: B1 RNA 1
RNA 2: B1 RNA 2 with U27C, C28G, U29G, A52C, A53G, U54A
B16: target 2 MT 5'PFS UAG 3'PFS ACC (mixed)
RNA 1: B1 RNA 1
RNA 2: B1 RNA 2 with C28A, U29G, A53C, U54C
B17: target 2 MT 5'PFS UUA 3'PFS GCA (mixed)
RNA 1: B1 RNA 1
RNA 2: B1 RNA 2 with C28U, U29A, A52G, A53C, U54A
B18: target 2 MT 5'PFS GAG 3'PFS UUU (mixed)
RNA 1: B1 RNA 1
RNA 2: B1 RNA 2 with U27G, C28A, U29G, A52U, A53U
B19: target 2 MT 5'PFS UAG 3'PFS ACA (mixed)
RNA 1: B1 RNA 1
RNA 2: B1 RNA 2 with C28A, U29G, A53C, U54A
B20: target 2 MT 5'PFS UCU 3'PFS AAA (mixed)
RNA 1: B1 RNA 1
RNA 2: B1 RNA 2 with U54A
B21: target 2 MT 5'PFS CUU 3'PFS CUG (mixed)
RNA 1: B1 RNA 1
RNA 2: B1 RNA 2 with U27C, C28U, A52C, A53U, U54G
B22: target 2 MT 5'PFS UCU 3'PFS AAC (mixed)
RNA 1: B1 RNA 1
RNA 2: B1 RNA 2 with U54C
B23: target 2 MT 5'PFS GGC 3'PFS UCA (mixed)
RNA 1: B1 RNA 1
RNA 2: B1 RNA 2 with U27G, C28G, U29C, A52U, A53C, U54A
B24: target 2 MT 5'PFS AUU 3'PFS CAC (mixed)
RNA 1: B1 RNA 1
RNA 2: B1 RNA 2 with U27A, C28U, A52C, U54C
B25: target 2 MT 5'PFS AAU 3'PFS UCG (mixed)
RNA 1: B1 RNA 1
RNA 2: B1 RNA 2 with U27A, C28A, A52U, A53C, U54G
B26: target 2 MT 5'PFS GGC 3'PFS UCC (mixed)
RNA 1: B1 RNA 1
RNA 2: B1 RNA 2 with U27G, C28G, U29C, A52U, A53C, U54C
B27: target 2 MT 5'PFS CGG 3'PFS CGC (mixed)
RNA 1: B1 RNA 1
RNA 2: B1 RNA 2 with U27C, C28G, U29G, A52C, A53G, U54C
B28: target 2 MT 5'PFS UUU 3'PFS CGC (mixed)
RNA 1: B1 RNA 1
RNA 2: B1 RNA 2 with C28U, A52C, A53G, U54C
B29: target 2 MT 5'PFS AAC 3'PFS UUA (mixed)
RNA 1: B1 RNA 1
RNA 2: B1 RNA 2 with U27A, C28A, U29C, A52U, A53U, U54A
B30: target 2 MT 5'PFS UUU 3'PFS CGA (mixed)
RNA 1: B1 RNA 1
RNA 2: B1 RNA 2 with C28U, A52C, A53G, U54A
B31: target 2 MT 5'PFS UAG 3'PFS ACG (mixed)
RNA 1: B1 RNA 1
RNA 2: B1 RNA 2 with C28A, U29G, A53C, U54G
B32: target 2 MT 5'PFS UUA 3'PFS GCC (mixed)
RNA 1: B1 RNA 1
RNA 2: B1 RNA 2 with C28U, U29A, A52G, A53C, U54C
B33: target 2 MT 5'PFS UGU 3'PFS UCU (mixed)
RNA 1: B1 RNA 1
RNA 2: B1 RNA 2 with C28G, A52U, A53C
B34: target 2 MT 5'PFS UGU 3'PFS UCG (mixed)
RNA 1: B1 RNA 1
RNA 2: B1 RNA 2 with C28G, A52U, A53C, U54G
B35: target 1 insU 3' of 21,insG 3' of 14 (mixed)
RNA 1: CACCCGUGCAAAAAUGCAGGGGUCUAAAACUGAGCGGAUAACCUCUCUAUGG
RNA 2: GGGAAUGGAUCCACAUCUACGAAUUCGUACCUAUAGAGAGGGUUAUCCGCUCACCGAGAUCGGAAGAGCACACGU
B36: target 1 G15A,C22A (mixed)
RNA 1: B35 RNA 1
RNA 2: GGGAAUGGAUCCACAUCUACGAAUUCGUAACAUAGAAAGGUUAUCCGCUCACCGAGAUCGGAAGAGCACACGU
B37: target 1 insA 3' of 8,insG 3' of 6 (mixed)
RNA 1: B35 RNA 1
RNA 2: GGGAAUGGAUCCACAUCUACGAAUUCGUACCAUAGAGAGGUUAUACCGGCUCACCGAGAUCGGAAGAGCACACGU
B38: target 1 insC 3' of 9,insA 3' of 3 (mixed)
RNA 1: B35 RNA 1
RNA 2: B37 RNA 2 with U44C, A45U, G49C, C50U, U51A

Target: T1, EsCas13d, nuclease-dead
Test: crRNA (strand 1, pre-loaded); Mg2+; 40 mM Tris-HCl pH 7.5, 150 mM NaCl, 6 mM MgCl2, 1 mM DTT, 0.1% Tween-20, 0.2 mg/ml BSA; 25 C; 10 min per concentration, then washed
Conditions: tags: His6-TwinStrep-SUMO cleaved; N-terminal SNAP kept (SNAP-Surface 488); label: 3' end held by stalled T7 RNA polymerase

Row | Binder | Kd [nM]
1 | B1 | 26 ± 10
2 | B2 | 4.5 ± 0.5
3 | B3 | 20 ± 6
4 | B4 | 15.9 ± 1.8
5 | B5 | 18.9 ± 1.7
6 | B6 | 10.8 ± 3.5
7 | B7 | 2.83 ± 0.35
8 | B8 | 19.8 ± 3.1
9 | B9 | 4.7 ± 0.5
10 | B10 | 5.6 ± 0.5
11 | B11 | 7.2 ± 1.1
12 | B12 | 3.8 ± 0.7
13 | B13 | 11.9 ± 1.2
14 | B14 | 10.3 ± 2.3
15 | B15 | 3 ± 0.3
16 | B16 | 7.3 ± 2.1
17 | B17 | 14.7 ± 2.1
18 | B18 | 18 ± 2.2
19 | B19 | 3 ± 0.5

Row | Binder | Kd [nM]
20 | B20 | 20 ± 8
21 | B21 | 4.2 ± 0.8
22 | B22 | 9.5 ± 1.7
23 | B23 | 20.6 ± 3.1
24 | B24 | 7.2 ± 0.7
25 | B25 | 6.4 ± 1
26 | B26 | 36 ± 9
27 | B27 | 3.81 ± 0.28
28 | B28 | 6.4 ± 0.5
29 | B29 | 7.4 ± 1.7
30 | B30 | 8 ± 0.9
31 | B31 | 3.12 ± 0.29
32 | B32 | 37 ± 12
33 | B33 | 17.7 ± 2.2
34 | B34 | 15.8 ± 2.5
35 | B35 | 39 ± 4
36 | B36 | 20.6 ± 2.7
37 | B37 | 17.5 ± 0.9
38 | B38 | 11.1 ± 0.6
